Reference: PMC4289141

Columns and labels:
[1] = target: ^C81/C96RIDC1 (the C81/C96 double mutant of Rosetta Interface Designed Cytochrome 1) (UniProt P0ABE7); assay: cross-linking
[2] = target: ^C81/C96RIDC1 (the C81/C96 double mutant of Rosetta Interface Designed Cytochrome 1) (UniProt P0ABE7); assay: AUC

abundance of polymeric species (19:1 GSH/GSSG, 1 mM, 1 day) [1]: 13% | abundance of the tetramer (air oxidation, room temperature) [1]: 48% | yield of the tetramer (19:1 GSH/GSSG, 1 mM, 1 day) [1]: 63% | stoichiometry N [2]: 4
Substance: ^C81/C96RIDC1 (the C81/C96 double mutant of Rosetta Interface Designed Cytochrome 1) (from UniProt P0ABE7 23-128) (natural protein)
